Reference: patent publication US20260098089A1 (KYMAB, published 2026)
Each block holds one binder with its values, some of them ahead of it.

Tests used:
[1] = molecular target: T1, Human CD7 on cells (CEM and other T-ALL cells, peripheral NK and T cells) (human, UniProt P09564 26-238); assay: cell-based or functional assay
T1 sequence: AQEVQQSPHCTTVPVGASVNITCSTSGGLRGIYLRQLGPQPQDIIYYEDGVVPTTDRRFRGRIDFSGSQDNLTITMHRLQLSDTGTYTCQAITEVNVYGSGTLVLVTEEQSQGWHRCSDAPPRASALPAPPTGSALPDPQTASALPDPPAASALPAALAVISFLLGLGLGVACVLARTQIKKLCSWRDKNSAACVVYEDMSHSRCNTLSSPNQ

[2] = molecular target: T2, Cynomolgus monkey (Macaca fascicularis) CD7 protein (soluble) (cynomolgus monkey (Macaca fascicularis)); assay: SPR, mAb captured, single concentration of cynomolgus CD7 protein as analyte
T2 construct: also called Cynomolgus CD7; cynomolgus antigen
T2 chain: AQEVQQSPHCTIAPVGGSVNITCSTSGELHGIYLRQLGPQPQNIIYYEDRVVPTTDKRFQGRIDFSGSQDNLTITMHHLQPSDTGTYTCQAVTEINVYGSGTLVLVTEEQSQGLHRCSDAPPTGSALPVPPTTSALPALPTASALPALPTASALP

[3] = molecular target: T1, Human CD7 on cells (CEM and other T-ALL …); assay: cell-based or functional assay; remark: listed apart in the source
[4] = molecular target: T3, Human CD7 protein (soluble) (human, UniProt P09564 26-180); assay: Affinity to soluble CD7 (biophysical summary; SPR)
T3 construct: also called hCD7; human antigen
T3 sequence: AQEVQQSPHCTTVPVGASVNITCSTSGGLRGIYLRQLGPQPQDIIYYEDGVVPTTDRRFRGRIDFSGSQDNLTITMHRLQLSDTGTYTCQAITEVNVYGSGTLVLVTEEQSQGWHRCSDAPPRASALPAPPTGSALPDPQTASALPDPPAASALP

[5] = molecular target: T2, Cynomolgus monkey (Macaca fascicularis) …; assay: Affinity to soluble CD7 (biophysical summary; SPR)
[6] = molecular target: T3, Human CD7 protein (soluble); assay: SPR, captured mAb, global fit 1:1 model
[7] = molecular target: T2, Cynomolgus monkey (Macaca fascicularis) …; assay: SPR, captured mAb, global fit 1:1 model

B1: 1741E04 E345R (antibody, human IgG1, V domains shown)
VH: EVQLVESGGGLVKPGGSPRLSCAAYGVTFSNAWMSWVRQAPGKGLEWVGRIKSKTDGGTTDYAAPVKGRFTISRDDSKNTLYLQMNSLKTEDTAVYYCTIEAVAGHFDYWGQGTLVTVSS
VL: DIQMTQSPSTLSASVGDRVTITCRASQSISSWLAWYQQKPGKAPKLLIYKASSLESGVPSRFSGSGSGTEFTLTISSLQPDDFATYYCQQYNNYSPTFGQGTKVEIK
EC50, CDC assay on CEM cells [1]: 0.12 nM
Maximum killing, CDC assay on CEM cells [1]: 99.8%
binding result [2]: no binding

B2: 1741G09 E345R (antibody, V domains shown)
VH: EVQLVESGGGLVKPGGSLRLSCAASGFSFSVAWMSWVRQAPGKGLEWVGRIKRKTDGGTTDYAAPVKGRFIISRDDSIKALYLQMNSLKTEDTAVYYCTTDPLLRYSDWLSHSLMGDVWGQGTTVTVSS
VL: DIQMTQSPSSLSASVGDRVAITCRTSQNINNYLNWYQQKPGKAPKPLIYAASSLQSGVPSRFSGSGSGTDFTLTISTLHPEDFATYYCQQTYSIPLTFGGGTKVEIK
EC50, CDC assay on CEM cells [1]: 0.12 nM
Maximum killing, CDC assay on CEM cells [1]: 99.5%

B3: 1730C02 E345R (antibody, human IgG1, V domains shown)
VH: EVQLVESGGGLVQLGGSLRLSCAASGLTFNNYAMSWVRQAPGKGLEWVSTISGSGGSTYYADSAKGRFTISRDNSKNTLYLQMNSLRAEDTAVYYCAKGGLLYFGEFHFDYWGQGTLVTVSS
VL: DIQMTQSPSSLSASVGDRVTIICRASQGISNYLAWFQQKPGKAPKSLIYAASSLQSGVPSKFSGSGSGTDFTLTISSLQPEDFATYYCQHYNSYPLTFGGGTKVEIK
EC50, CDC assay on CEM cells [1]: 0.00037 nM
Maximum killing, CDC assay on CEM cells [1]: 93.2%

B5: 1734F05 E345R (antibody, V domains shown)
VH: EVQLVESGGGLVQPGGSLRLSCAASGFTFSRYAMSWVRQAPGKGLEWVSSISASGATTFYADPVKGRFTISRDNSKKTLYLQMNSLRAEDTAVYYCAKDQDFDILTGYLNWFDPWGQGTLVTVSS
VL: EIVLTQSPATLSLSPGERVILSCRVSQSVSSYLAWYQQKPGQAPRLLIYDTSNRATGIPARFSGSGSGTDFTLTISSLEPEDFAVYYCQQRRNWPLTFGGGTKVEIK
EC50, CDC assay on CEM cells [1]: 1.16 nM
Maximum killing, CDC assay on CEM cells [1]: 100%

Now from value to binder:

CDC EC50; PDATLLAd2R, PDATALL12, PDTALL11 (intermediate to low CD7 expression) [3]: < 0.4 nM
CDC EC50; PDTALL13, PDTALL18 (much low CD7 expression) [3]: < 0.6 nM
CDC EC50; PDTALL46 and PDTALLAd2R [3]: ~0.35 nM
CDC assay on isolated peripheral NK cells, EC50 [3]: ~0.3 nM
Kd [4]: 4.75 nM
Kd [5]: 0.15 nM
B4: 1741G09 HuIgG1 E430G C-term Lysine clipped, Phe variant of light chain (antibody, V domains shown)
VH: EVQLVESGGGLVKPGGSLRLSCAASGFSFSVAWMSWVRQAPGKGLEWVGRIKRKTDGGTTDYAAPVKGRFIISRDDSIKALYLQMNSLKTEDTAVYYCTTDPLLRYSDWLSHSLMGDVWGQGTTVTVSS
VL: DIQMTQSPSSLSASVGDRVAITCRTSQNINNYLNWYQQKPGKAPKPLIYAASSLQSGVPSRFSGSGSGTDFTLTISTLHPEDFATYYCQQTYSIPLTFGGGTKVEIKR
notes: also called 1741G09 E430G; G09 E430G

Kd [6]: 4.74 nM
koff [6]: 0.00192 s⁻¹
kon [6]: 416000 M⁻¹ s⁻¹
Kd [7]: 0.145 nM
kon [7]: 424000 M⁻¹ s⁻¹
B6: 1741G09 (antibody, V domains shown)
VH: EVQLVESGGGLVKPGGSLRLSCAASGFSFSVAWMSWVRQAPGKGLEWVGRIKRKTDGGTTDYAAPVKGRFIISRDDSIKALYLQMNSLKTEDTAVYYCTTDPLLRYSDWLSHSLMGDVWGQGTTVTVSS
VL: DIQMTQSPSSLSASVGDRVAITCRTSQNINNYLNWYQQKPGKAPKPLIYAASSLQSGVPSRFSGSGSGTDFTLTISTLHPEDFATYYCQQTYSIPLTFGGGTKVEIK
notes: also called 1741G9

Kd [6]: 0.98 nM
koff [6]: 0.000356 s⁻¹
kon [6]: 369000 M⁻¹ s⁻¹
Kd [7]: 3.9 nM
koff [7]: 0.000642 s⁻¹
kon [7]: 165000 M⁻¹ s⁻¹
B7: 1734F05 (antibody, V domains shown)
VH: EVQLVESGGGLVQPGGSLRLSCAASGFTFSRYAMSWVRQAPGKGLEWVSSISASGATTFYADPVKGRFTISRDNSKKTLYLQMNSLRAEDTAVYYCAKDQDFDILTGYLNWFDPWGQGTLVTVSS
VL: EIVLTQSPATLSLSPGERVILSCRVSQSVSSYLAWYQQKPGQAPRLLIYDTSNRATGIPARFSGSGSGTDFTLTISSLEPEDFAVYYCQQRRNWPLTFGGGTKVEIK
